Source: paper PMC9482650, “Quantitative fragmentomics allow affinity mapping of interactomes” (Nature Communications, 2022)
Positions count from the first letter of the chain named.

T1: GRIP1_7, Q9Y3R0
T1 sequence (Q9Y3R0 999-1096, limits assumed, looked up): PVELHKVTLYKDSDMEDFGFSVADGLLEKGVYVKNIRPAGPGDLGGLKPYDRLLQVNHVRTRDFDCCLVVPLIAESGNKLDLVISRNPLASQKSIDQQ

T2: GRIP1_4, Q9Y3R0
T2 sequence (Q9Y3R0 467-571, limits assumed, looked up): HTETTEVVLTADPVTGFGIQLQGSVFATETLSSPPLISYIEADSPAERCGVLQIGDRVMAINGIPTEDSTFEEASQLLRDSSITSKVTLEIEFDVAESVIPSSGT

T3: SNTG1, Q9NSN8
T3 sequence (Q9NSN8 52-150, limits assumed, looked up): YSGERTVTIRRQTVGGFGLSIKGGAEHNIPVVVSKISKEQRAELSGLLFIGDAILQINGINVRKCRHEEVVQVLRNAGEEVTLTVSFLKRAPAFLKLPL

T4: RAPGEF6, Q8TEU7
T4 sequence (Q8TEU7 525-625, limits assumed, looked up): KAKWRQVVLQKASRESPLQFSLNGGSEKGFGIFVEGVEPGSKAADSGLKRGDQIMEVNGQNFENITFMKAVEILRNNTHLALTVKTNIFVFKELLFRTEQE

T5: LIN7C, Q9NUP9
T5 sequence (Q9NUP9 88-185, limits assumed, looked up): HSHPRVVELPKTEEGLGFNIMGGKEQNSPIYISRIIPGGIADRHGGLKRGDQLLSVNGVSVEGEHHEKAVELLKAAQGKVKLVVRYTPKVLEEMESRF

T6: SNTB1, Q13884
T6 sequence (Q13884 107-205, limits assumed, looked up): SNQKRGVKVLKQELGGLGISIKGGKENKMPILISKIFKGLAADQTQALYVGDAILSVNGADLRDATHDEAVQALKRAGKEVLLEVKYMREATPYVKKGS

T7: SYNJ2BP, P57105
T7 sequence (P57105 8-110, limits assumed, looked up): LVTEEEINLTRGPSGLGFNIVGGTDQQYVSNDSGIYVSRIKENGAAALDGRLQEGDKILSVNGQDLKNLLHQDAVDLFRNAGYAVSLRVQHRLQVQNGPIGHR

T8: PDZD2_2, O15018
T8 sequence (O15018 329-429, limits assumed, looked up): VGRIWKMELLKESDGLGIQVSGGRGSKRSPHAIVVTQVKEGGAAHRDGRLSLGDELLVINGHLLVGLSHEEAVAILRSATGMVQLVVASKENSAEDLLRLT

T9: PTPN13_1, Q12923
T9 sequence (Q12923 1088-1188, limits assumed, looked up): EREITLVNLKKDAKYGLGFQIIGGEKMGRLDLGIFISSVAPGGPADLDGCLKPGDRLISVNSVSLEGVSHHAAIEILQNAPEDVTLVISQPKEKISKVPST

T10: LIN7A, O14910
T10 sequence (O14910 103-200, limits assumed, looked up): T5 sequence (Q9NUP9 88-185, limits assumed, looked up) with E13D, I20V, I40V, D42E, Q77K, G78D, K79S, S96A

T11: NHERF3_3, Q5T2W1
T11 sequence (Q5T2W1 238-333, limits assumed, looked up): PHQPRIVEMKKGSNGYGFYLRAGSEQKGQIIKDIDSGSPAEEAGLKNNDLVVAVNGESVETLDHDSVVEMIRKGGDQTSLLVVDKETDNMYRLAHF

T12: DFNB31_3, Q9P202
T12 sequence (Q9P202 811-907, limits assumed, looked up): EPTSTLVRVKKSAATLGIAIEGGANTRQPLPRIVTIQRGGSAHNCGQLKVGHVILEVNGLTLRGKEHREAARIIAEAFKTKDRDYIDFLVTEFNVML

T13: MPDZ_5, O75970
T13 sequence (O75970 695-796, limits assumed, looked up): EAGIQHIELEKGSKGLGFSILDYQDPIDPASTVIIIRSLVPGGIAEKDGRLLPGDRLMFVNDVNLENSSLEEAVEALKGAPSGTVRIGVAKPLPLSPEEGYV


target: T1, GRIP1_7, Q9Y3R0; assay: holdup assay; design: key: below the threshold = too weak to quantify, mostly under pKd 3.1 to 4; settings: plain residues with an end cap or a label only (N-terminal biotin on a linker: ado-ado)

Row | Binder | pKd
1 | QLAEIAESGL [ITK, Q08881] | below the threshold
2 | PKLMGVETVV [DUSP10, Q9Y6W6] | below the threshold

target: PICK1, Q9NRD5; assay: holdup assay; design: key: below the threshold = too weak to quantify, mostly under pKd 3.1 to 4; settings: plain residues with an end cap or a label only (N-terminal biotin on a linker: ado-ado)
Sequence (Q9NRD5 17-115): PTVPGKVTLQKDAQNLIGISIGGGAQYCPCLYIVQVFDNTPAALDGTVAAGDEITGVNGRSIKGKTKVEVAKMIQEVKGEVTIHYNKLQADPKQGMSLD

Row | Binder | pKd
3 | QLAEIAESGL [ITK, Q08881] | below the threshold
4 | PKLMGVETVV [DUSP10, Q9Y6W6] | below the threshold

target: TJP1_3, Q07157; assay: holdup assay; design: key: below the threshold = too weak to quantify, mostly under pKd 3.1 to 4; settings: plain residues with an end cap or a label only (N-terminal biotin on a linker: ado-ado)
Sequence (Q07157 416-512): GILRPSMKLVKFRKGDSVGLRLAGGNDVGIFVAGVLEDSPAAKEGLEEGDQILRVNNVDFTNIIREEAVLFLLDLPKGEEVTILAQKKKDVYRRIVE

Row | Binder | pKd
5 | QLAEIAESGL [ITK, Q08881] | below the threshold
6 | PKLMGVETVV [DUSP10, Q9Y6W6] | below the threshold

target: T2, GRIP1_4, Q9Y3R0; assay: holdup assay; design: key: below the threshold = too weak to quantify, mostly under pKd 3.1 to 4; settings: plain residues with an end cap or a label only (N-terminal biotin on a linker: ado-ado)

Row | Binder | pKd
7 | QLAEIAESGL [ITK, Q08881] | below the threshold
8 | PKLMGVETVV [DUSP10, Q9Y6W6] | below the threshold

target: GRID2IP_1, A4D2P6; assay: holdup assay; design: key: below the threshold = too weak to quantify, mostly under pKd 3.1 to 4; settings: plain residues with an end cap or a label only (N-terminal biotin on a linker: ado-ado)
Sequence (A4D2P6 1-87): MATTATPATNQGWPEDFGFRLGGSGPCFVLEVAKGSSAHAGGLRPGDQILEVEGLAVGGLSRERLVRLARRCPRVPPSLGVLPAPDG

Row | Binder | pKd
9 | QLAEIAESGL [ITK, Q08881] | below the threshold
10 | PKLMGVETVV [DUSP10, Q9Y6W6] | below the threshold

target: MAGI2_5, Q86UL8; assay: holdup assay; design: key: below the threshold = too weak to quantify, mostly under pKd 3.1 to 4; settings: plain residues with an end cap or a label only (N-terminal biotin on a linker: ado-ado)
Sequence (Q86UL8 915-1017): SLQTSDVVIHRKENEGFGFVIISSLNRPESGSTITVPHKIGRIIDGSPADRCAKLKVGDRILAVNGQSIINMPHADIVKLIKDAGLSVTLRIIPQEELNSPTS

Row | Binder | pKd
11 | QLAEIAESGL [ITK, Q08881] | below the threshold
12 | PKLMGVETVV [DUSP10, Q9Y6W6] | 4.06

target: T3, SNTG1, Q9NSN8; assay: holdup assay; design: key: below the threshold = too weak to quantify, mostly under pKd 3.1 to 4; settings: plain residues with an end cap or a label only (N-terminal biotin on a linker: ado-ado)

Row | Binder | pKd
13 | QLAEIAESGL [ITK, Q08881] | 3.72
14 | PKLMGVETVV [DUSP10, Q9Y6W6] | 4.47

target: T4, RAPGEF6, Q8TEU7; assay: holdup assay; design: key: below the threshold = too weak to quantify, mostly under pKd 3.1 to 4; settings: plain residues with an end cap or a label only (N-terminal biotin on a linker: ado-ado)

Row | Binder | pKd
15 | QLAEIAESGL [ITK, Q08881] | below the threshold
16 | PKLMGVETVV [DUSP10, Q9Y6W6] | below the threshold

target: FRMPD3, Q5JV73; assay: holdup assay; design: key: below the threshold = too weak to quantify, mostly under pKd 3.1 to 4; settings: plain residues with an end cap or a label only (N-terminal biotin on a linker: ado-ado)
Sequence (Q5JV73 12-100): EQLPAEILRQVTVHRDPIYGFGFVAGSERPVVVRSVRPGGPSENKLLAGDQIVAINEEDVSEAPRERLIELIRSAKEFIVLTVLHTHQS

Row | Binder | pKd
17 | QLAEIAESGL [ITK, Q08881] | below the threshold
18 | PKLMGVETVV [DUSP10, Q9Y6W6] | below the threshold

target: T5, LIN7C, Q9NUP9; assay: holdup assay; design: key: below the threshold = too weak to quantify, mostly under pKd 3.1 to 4; settings: plain residues with an end cap or a label only (N-terminal biotin on a linker: ado-ado)

Row | Binder | pKd
19 | QLAEIAESGL [ITK, Q08881] | below the threshold
20 | PKLMGVETVV [DUSP10, Q9Y6W6] | 3.81

target: AHNAK1, Q09666; assay: holdup assay; design: key: below the threshold = too weak to quantify, mostly under pKd 3.1 to 4; settings: plain residues with an end cap or a label only (N-terminal biotin on a linker: ado-ado)
Sequence (Q09666 4-100): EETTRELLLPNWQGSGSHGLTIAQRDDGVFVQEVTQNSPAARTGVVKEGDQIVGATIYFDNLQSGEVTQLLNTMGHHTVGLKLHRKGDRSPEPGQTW

Row | Binder | pKd
21 | QLAEIAESGL [ITK, Q08881] | below the threshold
22 | PKLMGVETVV [DUSP10, Q9Y6W6] | below the threshold

target: GORASP2, Q9H8Y8; assay: holdup assay; design: key: below the threshold = too weak to quantify, mostly under pKd 3.1 to 4; settings: plain residues with an end cap or a label only (N-terminal biotin on a linker: ado-ado)

Row | Binder | pKd
23 | QLAEIAESGL [ITK, Q08881] | below the threshold
24 | PKLMGVETVV [DUSP10, Q9Y6W6] | 5.03

target: T6, SNTB1, Q13884; assay: holdup assay; design: key: below the threshold = too weak to quantify, mostly under pKd 3.1 to 4; settings: plain residues with an end cap or a label only (N-terminal biotin on a linker: ado-ado)

Row | Binder | pKd
25 | QLAEIAESGL [ITK, Q08881] | 3.67
26 | PKLMGVETVV [DUSP10, Q9Y6W6] | 5.17

target: LNX1_3, Q8TBB1; assay: holdup assay; design: key: below the threshold = too weak to quantify, mostly under pKd 3.1 to 4; settings: plain residues with an end cap or a label only (N-terminal biotin on a linker: ado-ado)
Sequence (Q8TBB1 500-596): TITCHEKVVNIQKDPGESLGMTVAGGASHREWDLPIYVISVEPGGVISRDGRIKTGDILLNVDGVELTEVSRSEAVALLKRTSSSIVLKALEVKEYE

Row | Binder | pKd
27 | QLAEIAESGL [ITK, Q08881] | 3.66
28 | PKLMGVETVV [DUSP10, Q9Y6W6] | below the threshold

target: FRMPD2_2, Q68DX3; assay: holdup assay; design: key: below the threshold = too weak to quantify, mostly under pKd 3.1 to 4; settings: plain residues with an end cap or a label only (N-terminal biotin on a linker: ado-ado)
Sequence (Q68DX3 944-1038): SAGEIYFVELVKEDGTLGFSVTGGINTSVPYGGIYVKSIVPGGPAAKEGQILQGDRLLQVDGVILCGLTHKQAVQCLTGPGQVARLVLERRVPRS

Row | Binder | pKd
29 | QLAEIAESGL [ITK, Q08881] | 3.52
30 | PKLMGVETVV [DUSP10, Q9Y6W6] | 4.1

target: T7, SYNJ2BP, P57105; assay: holdup assay; design: key: below the threshold = too weak to quantify, mostly under pKd 3.1 to 4; settings: plain residues with an end cap or a label only (N-terminal biotin on a linker: ado-ado)

Row | Binder | pKd
31 | QLAEIAESGL [ITK, Q08881] | 3.84
32 | PKLMGVETVV [DUSP10, Q9Y6W6] | 4.69

target: MAST2, Q6P0Q8; assay: holdup assay; design: key: below the threshold = too weak to quantify, mostly under pKd 3.1 to 4; settings: plain residues with an end cap or a label only (N-terminal biotin on a linker: ado-ado)
Sequence (Q6P0Q8 1099-1202): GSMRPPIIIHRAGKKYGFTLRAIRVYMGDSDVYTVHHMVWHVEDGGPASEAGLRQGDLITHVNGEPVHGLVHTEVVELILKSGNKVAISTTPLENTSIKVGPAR

Row | Binder | pKd
33 | QLAEIAESGL [ITK, Q08881] | 5.28
34 | PKLMGVETVV [DUSP10, Q9Y6W6] | 5.17

target: T8, PDZD2_2, O15018; assay: holdup assay; design: key: below the threshold = too weak to quantify, mostly under pKd 3.1 to 4; settings: plain residues with an end cap or a label only (N-terminal biotin on a linker: ado-ado)

Row | Binder | pKd
35 | QLAEIAESGL [ITK, Q08881] | 3.68
36 | PKLMGVETVV [DUSP10, Q9Y6W6] | 4.22

target: Inadl_5, Q8NI35; assay: holdup assay; design: key: below the threshold = too weak to quantify, mostly under pKd 3.1 to 4; settings: plain residues with an end cap or a label only (N-terminal biotin on a linker: ado-ado)
Sequence (Q8NI35 673-780): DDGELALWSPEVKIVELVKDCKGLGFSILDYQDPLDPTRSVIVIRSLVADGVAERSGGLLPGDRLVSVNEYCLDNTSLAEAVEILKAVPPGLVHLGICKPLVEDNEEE

Row | Binder | pKd
37 | QLAEIAESGL [ITK, Q08881] | 3.58
38 | PKLMGVETVV [DUSP10, Q9Y6W6] | 3.56

target: T9, PTPN13_1, Q12923; assay: holdup assay; design: key: below the threshold = too weak to quantify, mostly under pKd 3.1 to 4; settings: plain residues with an end cap or a label only (N-terminal biotin on a linker: ado-ado)

Row | Binder | pKd
39 | QLAEIAESGL [ITK, Q08881] | below the threshold
40 | PKLMGVETVV [DUSP10, Q9Y6W6] | 3.48

target: T10, LIN7A, O14910; assay: holdup assay; design: key: below the threshold = too weak to quantify, mostly under pKd 3.1 to 4; settings: plain residues with an end cap or a label only (N-terminal biotin on a linker: ado-ado)

Row | Binder | pKd
41 | QLAEIAESGL [ITK, Q08881] | 3.65
42 | PKLMGVETVV [DUSP10, Q9Y6W6] | 3.58

target: T11, NHERF3_3, Q5T2W1; assay: holdup assay; design: key: below the threshold = too weak to quantify, mostly under pKd 3.1 to 4; settings: plain residues with an end cap or a label only (N-terminal biotin on a linker: ado-ado)

Row | Binder | pKd
43 | QLAEIAESGL [ITK, Q08881] | below the threshold
44 | PKLMGVETVV [DUSP10, Q9Y6W6] | below the threshold

target: T12, DFNB31_3, Q9P202; assay: holdup assay; design: key: below the threshold = too weak to quantify, mostly under pKd 3.1 to 4; settings: plain residues with an end cap or a label only (N-terminal biotin on a linker: ado-ado)

Row | Binder | pKd
45 | QLAEIAESGL [ITK, Q08881] | below the threshold
46 | PKLMGVETVV [DUSP10, Q9Y6W6] | below the threshold

target: T13, MPDZ_5, O75970; assay: holdup assay; design: key: below the threshold = too weak to quantify, mostly under pKd 3.1 to 4; settings: plain residues with an end cap or a label only (N-terminal biotin on a linker: ado-ado)

Row | Binder | pKd
47 | QLAEIAESGL [ITK, Q08881] | 3.6
48 | PKLMGVETVV [DUSP10, Q9Y6W6] | 3.58
